Here are results for one molecule from PMC6585716 (Biopolymers, 2017).

The test has as its target Recombinant human vascular endothelial growth factor (VEGF165) (human, UniProt P15692-4 1-191). Particulars: both partners purified.

code X = not defined here; Az4 = not defined here

The EC50 is the concentration at which the effect is half-maximal.

Sequence of Recombinant human vascular endothelial growth factor (VEGF165) (P15692 other isoform, or with tags, fused parts or gaps): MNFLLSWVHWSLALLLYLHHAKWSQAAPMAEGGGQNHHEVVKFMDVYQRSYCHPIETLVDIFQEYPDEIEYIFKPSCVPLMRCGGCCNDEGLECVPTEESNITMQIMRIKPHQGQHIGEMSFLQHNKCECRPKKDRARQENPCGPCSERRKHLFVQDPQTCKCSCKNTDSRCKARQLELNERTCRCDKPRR

B1: AnchorV (X-VEPNCDIHVMWEWECFERL-Az4) (peptide)
peptide: {code X}-VEPNCDIHVMWEWECFERL-Az4
modifications: cysteine pairing not given here; reading uncertain
notes: also called anti-VEGF cyclic peptide ligand
As to B1, the EC50 amounted to 0.14 ± 0.021 µM.
